The text below walks through data of PMC11044963, “Probing the CRL4^DCAF12 interactions with MAGEA3 and CCT5 di-Glu C-terminal degrons” (PNAS Nexus, 2024).

Holding throughout (conditions): both partners purified
The target in one test is T1, DCAF12 (Δ1–78) (human, UniProt Q5T6F0 79-453).
T1 construct: DDB1- and CUL4-associated factor 12 (DCAF12), human, residues 79-453 (Δ1-78); also called DCAF12:79-453aa; N-terminally truncated DCAF12; source: Sf9 (baculovirus, pFBOH-MHL), purified (TALON beads, Superdex S200 26/60)
The test is described as follows: fluorescence polarisation; direct binding; protein titrated from 4 µM in two-fold steps against 20 nM FITC peptide; 20 mM Tris pH 7.5, 150 mM NaCl, 5% glycerol, 0.5 mM TCEP, 0.01% Triton; 45 min at room temperature.

The target in another test is DDB1–DCAF12 complex (human, UniProt Q5T6F0 1-453; Q5T6F0 1-453). Described as above.
Test [1] concerns the target T2, biotinylated DCAF12 (Δ1–78) (human, UniProt Q5T6F0 79-453, biotin).
T2 construct: DDB1- and CUL4-associated factor 12 (DCAF12), human, residues 79-453 (Δ1-78); also called DCAF12:79-453aa; DCAF12 Δ1–78 (pFBD-BirA); source: Sf9 (pFBD-BirA vector), purified (TALON beads, Superdex S200 26/60)
The test is described as follows: SPR; biotinylated DCAF12 (Δ1–78) immobilised (~3,200 RU) on a streptavidin chip, Biacore 8K+; peptides injected, 8-point two-fold series from 1 µM; 10 mM HEPES pH 7.4, 150 mM NaCl, 3 mM EDTA, 0.005% P20, 5% glycerol, 2% DMSO; 15 °C; 1:1 Langmuir fit.

Where no end group is shown, it is not given here. The star is where a group is joined. FITC = O=C1OC2(c3ccc(O)cc3Oc3cc(O)ccc32)c2ccc(NC(=S)*)cc21

B1: FITC-labeled MAGEA3 C-terminal degron peptide (peptide)
peptide: {FITC}-LHEWVLREGEE
notes: 11 C-terminal residues of melanoma-associated antigen 3 (MAGEA3); also called MAGEA3 peptide
What is called Kd is a measure of binding affinity in units of concentration. As for B1, the Kd in the test with DCAF12 (Δ1–78) is 520 nM; with DDB1–DCAF12 complex it was 180 nM.

B2: unlabeled MAGEA3 C-terminal degron peptide (peptide)
peptide: LHEWVLREGEE
notes: as for B1
In test [1], B2 came in with a Kd of 161 nM.

B3: FITC-labeled CCT5 C-terminal degron peptide (peptide)
peptide: {FITC}-IRKPGESEE
notes: nine C-terminal residues of T-complex protein 1 subunit epsilon (CCT5); also called CCT5 peptide
Regarding B3, the dissociation constant Kd with DCAF12 (Δ1–78) was found to be 370 nM; with DDB1–DCAF12 complex, 80 nM.

B4: unlabeled CCT5 C-terminal degron peptide (peptide)
peptide: IRKPGESEE
notes: as for B3
With B4, the Kd in test [1] is 60 nM.
